Measured values taken from patent publication US20210355194A1 (TWIST BIOSCIENCE, published 2021).

Biological target: SARS-CoV-2 membrane protein on expressing cells (SARS-CoV-2, UniProt P0DTC5 1-222)

B1: 9-3 (VHH)
VHH: EVQLVESGGGLVQPGGSLRLSCAASGRTFSRYAMGWFRQAPGKEREFVAAISRSGKSTYYADSVKGRFTISADNSKNTAYLQMNSLKPEDTAVYYCAASSVFSDLRYRKNPKWGQGTLVTVSS
With B1 the “MFI Ratio” value was 1.61.

B2: 10-40 (VHH)
VHH: EVQLVESGGGLVQPGGSLRLSCAASGRTFSTYTMGWFRQAPGKEREFVARIWRSGGNTYYADSVKGRFTISADNSKNTAYLQMNSLKPEDTAVYYCARGVRGVFRAYFDHWGQGTLVTVSS
B2 was tested, and the “MFI Ratio” value was 3.78.

B3: 10-43 (VHH)
VHH: EVQLVESGGGLVQPGGSLRLSCAASGRTFRRYHMGWFRQAPGKEREFVAAITSGGRTNYADSVKGRFTISADNSKNTAYLQMNSLKPEDTAVYYCTTDGLRYFDWFPWASAFDIWGQGTLVTVSS
With B3 the “MFI Ratio” value was 1.55.

B4: 10-29 (VHH)
VHH: EVQLVESGGGLVQPGGSLRLSCAASGRTFTSYRMGWFRQAPGKEREFVAEISSSGGYTYYADSVKGRFTISADNSKNTAYLQMNSLKPEDTAVYYCARVGPLRFLAQRPRLRPDYWGQGTLVTVSS
For B4, the “MFI Ratio” value was 1.48.

B5: 10-11 (VHH)
VHH: EVQLVESGGGLVQPGGSLRLSCAASGRNFRRNSMGWFRQAPGKEREFVAGISWSGARTHYADSVKGRFTISADNSKNTAYLQMNSLKPEDTAVYYCARVSRRPRSPPGYYYGMDVWGQGTLVTVSS
B5 was tested, and the “MFI Ratio” value was 1.56.

B6: 10-9 (VHH)
VHH: EVQLVESGGGLVQPGGSLRLSCAASGIPFRSRTMGWFRQAPGKEREFVAGITGSGRSQYYADSVKGRFTISADNSKNTAYLQMNSLKPEDTAVYYCARGARIFGSVAPWRGGNYYGMDVWGQGTLVTVSS
For B6, the “MFI Ratio” value was 1.61.

B7: 10-48 (VHH)
VHH: EVQLVESGGGLVQPGGSLRLSCAASGRTFRRYAMGWFRQAPGKEREFVAAINRSGSTEYADSVKGRFTISADNSKNTAYLQMNSLKPEDTAVYYCARQHQDFWTGYYTVWGQGTLVTVSS
B7 was tested, and the “MFI Ratio” value was 4.11.

B8: 9-8 (VHH)
VHH: EVQLVESGGGLVQPGGSLRLSCAASGRTFRRYPMGWFRQAPGKEREFVAAISRSGGSTYYADSVKGRFTISADNSKNTAYLQMNSLKPEDTAVYYCAAKRLRSFASGGSYDWGQGTLVTVSS
With B8 the “MFI Ratio” value was 3.76.

B9: 10-57 (VHH)
VHH: EVQLVESGGGLVQPGGSLRLSCAASGRTFSRYAMGWFRQAPGKEREFVASITKFGSTNYADSVKGRFTISADNSKNTAYLQMNSLKPEDTAVYYCAKERESRFLKWRKTDWGQGTLVTVSS
B9 was tested, and the “MFI Ratio” value was 1.79.

B10: 10-17 (VHH)
VHH: EVQLVESGGGLVQPGGSLRLSCAASGRTFSIYAMGWFRQAPGKEREFVARITRGGITKYADSVKGRFTISADNSKNTAYLQMNSLKPEDTAVYYCARGLGWLLGYYWGQGTLVTVSS
B10 was tested, and the “MFI Ratio” value was 1.59.

B11: 10-22 (VHH)
VHH: EVQLVESGGGLVQPGGSLRLSCAASGRTYYAMGWFRQAPGKEREFVGAIDWSGRRITYADSVKGRFTISADNSKNTAYLQMNSLKPEDTAVYYCARVRFSRLGGVIGRPIDSWGQGTLVTVSS
In the case of B11, the “MFI Ratio” value is reported as 4.47.

B12: 10-31 (VHH)
VHH: EVQLVESGGGLVQPGGSLRLSCAASGRTFGSYGMGWFRQAPGKEREFVATISIGGRTYYADSVKGRFTISADNSKNTAYLQMNSLKPEDTAVYYCARGSGSGFMWYHGNNNYDRWRYWGQGTLVTVSS
With B12 the “MFI Ratio” value was 1.66.

B13: 10-30 (VHH)
VHH: EVQLVESGGGLVQPGGSLRLSCAASGRTFSSFRFRAMGWFRQAPGKEREFVALIFSGGSTYYADSVKGRFTISADNSKNTAYLQMNSLKPEDTAVYYCAREWGRWLQRGSYWGQGTLVTVSS
B13 was tested, and the “MFI Ratio” value was 1.57.

B14: 10-19 (VHH)
VHH: EVQLVESGGGLVQPGGSLRLSCAASGRTFRSYGMGWFRQAPGKEREFVASISRSGTTMYADSVKGRFTISADNSKNTAYLQMNSLKPEDTAVYYCARRGLLQWFGAPNSWFDPWGQGTLVTVSS
B14 was tested, and the “MFI Ratio” value was 1.54.

B15: 10-54 (VHH)
VHH: EVQLVESGGGLVQPGGSLRLSCAASGRTFSSARMGWFRQAPGKEREFVAGINMISSTKYADSVKGRFTISADNSKNTAYLQMNSLKPEDTAVYYCAHFRRFLPRGYVDYWGQGTLVTVSS
With B15 the “MFI Ratio” value was 1.78.

B16: 10-50 (VHH)
VHH: EVQLVESGGGLVQPGGSLRLSCAASGRTLSTYNMGWFRQAPGKEREFVASISRFGRTNYADSVKGRFTISADNSKNTAYLQMNSLKPEDTAVYYCARRGKLSAAMHWFDPWGQGTLVTVSS
With B16 the “MFI Ratio” value was 1.72.

B17: 10-47 (VHH)
VHH: EVQLVESGGGLVQPGGSLRLSCAASGRPLRRYVMGWFRQAPGKEREFVAAITNGGSTKYADSVKGRFTISADNSKNTAYLQMNSLKPEDTAVYYCARGTPWRLLWFGTLGPPPAFDYWGQGTLVTVSS
For B17, the “MFI Ratio” value was 1.62.

B18: 9-10 (VHH)
VHH: EVQLVESGGGLVQPGGSLRLSCAASGRMFSSRSMGWFRQAPGKEREFVALINRSGGSQFYADSVKGRFTISADNSKNTAYLQMNSLKPEDTAVYYCAARRWIPPGPIWGQGTLVTVSS
B18 was tested, and the “MFI Ratio” value was 1.52.

B19: 10-28 (VHH)
VHH: EVQLVESGGGLVQPGGSLRLSCAASGSIFSIGMGWFRQAPGKEREFVARIWWRSGATYYADSVKGRFTISADNSKNTAYLQMNSLKPEDTAVYYCAAISIFGRLKWGQGTLVTVSS
With B19 the “MFI Ratio” value was 2.06.

B20: 10-41 (VHH)
VHH: EVQLVESGGGLVQPGGSLRLSCAASGRNLRMYRMGWFRQAPGKEREFVALISRVGVTSYADSVKGRFTISADNSKNTAYLQMNSLKPEDTAVYYCARGTSFFNFWSGSLGRVGFDSWGQGTLVTVSS
For B20, the “MFI Ratio” value was 1.75.

B21: 10-42 (VHH)
VHH: EVQLVESGGGLVQPGGSLRLSCAASGITIRTHAMGWFRQAPGKEREFVATISRSGGNTYYADSVKGRFTISADNSKNTAYLQMNSLKPEDTAVYYCTTAGVLRYFDWFRRPYWGQGTLVTVSS
B21 was tested, and the “MFI Ratio” value was 1.74.

B22: 10-5 (VHH)
VHH: EVQLVESGGGLVQPGGSLRLSCAASGRSLGIYRMGWFRQAPGKEREFVAAITSGGRKNYADSVKGRFTISADNSKNTAYLQMNSLKPEDTAVYYCAKRTIFGVGRWLDPWGQGTLVTVSS
For B22, the “MFI Ratio” value was 1.59.

B23: 10-52 (VHH)
VHH: EVQLVESGGGLVQPGGSLRLSCAASGRFFSICSMGWFRQAPGKEREFVAGINWRSGGSTYYADSVKGRFTISADNSKNTAYLQMNSLKPEDTAVYYCARGSGWWEYWGQGTLVTVSS
In the case of B23, the “MFI Ratio” value is reported as 4.11.
